From the supplement of paper PMC7125110
± gives the standard error. This sample holds only a part of the variants without activity.

B1: glmS ribozyme (parent)
chain: AUAAAAGCGCCAGAACUACAGAAAUGUAGUUGACGAGGAGGAGGUUUAUCGAAUUUUCGGCGGAUGCCUCCAAA

Experiments:
Conditions in all cases: with glucosamine-6-phosphate
glucosamine-6-phosphate [1] = variants of: B1; experiment: self-cleavage kobs at 640 uM GlcN6P; higher = faster cleavage; RNA array
How it was run: (§1)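 E. coli RNA polymerase transcribed barcoded ribozyme variants in situ on sequenced MiSeq chips, which were tracked via a hybridised Cy3 probe at 37 °C. Tiles were imaged over ~14 h after glucosamine-6-phosphate (40 μM to 10 mM) in HEPES/KCl/Mg(OAc)2 buffer was flowed in. Normalised per-tile medians were fit to one- or two-exponential decays for kobs, and kcat and KM came from weighted Michaelis–Menten fits.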

glucosamine-6-phosphate [2] = variants of: B1; experiment: self-cleavage kobs at 2500 uM GlcN6P; higher = faster cleavage; RNA array
How it was run: as §1

glucosamine-6-phosphate [3] = variants of: B1; experiment: self-cleavage kobs at 10000 uM GlcN6P; higher = faster cleavage; RNA array
How it was run: as §1

| Variant | self-cleavage kobs at 640 uM GlcN6P (glucosamine-6-phosphate [1]) [s⁻¹] | self-cleavage kobs at 2500 uM GlcN6P (glucosamine-6-phosphate [2]) [s⁻¹] | self-cleavage kobs at 10000 uM GlcN6P (glucosamine-6-phosphate [3]) [s⁻¹] |
| --- | --- | --- | --- |
| A42C U49C C58U | < 1e-05 | < 1e-05 |  |
| A42G G43A G44C | < 1e-05 | < 1e-05 |  |
| A33U G35C G63U | < 1e-05 | < 1e-05 |  |
| G43A U45A A53U G62C A64U | < 1e-05 | < 1e-05 |  |
| A39U A42C U49G | < 1e-05 |  |  |
| A36U A39G U45G C61U G62C | < 1e-05 | < 1e-05 | < 1e-05 |
| G43C U69G | < 1e-05 |  | < 1e-05 |
| A33U G43A A48U C61U C70U | < 1e-05 | < 1e-05 |  |
| A39G G40U C50U | < 1e-05 | < 1e-05 | < 1e-05 |
| A33C A48C | < 1e-05 | < 1e-05 |  |
| G40A G51A G59A | < 1e-05 |  |  |
| C34G G44U C50U C71U | < 1e-05 | < 1e-05 |  |
| C34A U54A A64C | < 1e-05 | < 1e-05 |  |
| A33G A52G U65G | < 1e-05 | < 1e-05 |  |
| G37A C61A C70U | < 1e-05 | < 1e-05 | < 1e-05 |
| G35U G43U G60A | < 1e-05 | < 1e-05 |  |
| G38U G43U U46A A48U C61A C67G | < 1e-05 |  |  |
| G38U C67U C70U | 0.000296 ± 0.00014 |  |  |
| A36U A52U | < 1e-05 | < 1e-05 |  |

| Variant | self-cleavage kobs at 640 uM GlcN6P (glucosamine-6-phosphate [1]) [s⁻¹] | self-cleavage kobs at 2500 uM GlcN6P (glucosamine-6-phosphate [2]) [s⁻¹] | self-cleavage kobs at 10000 uM GlcN6P (glucosamine-6-phosphate [3]) [s⁻¹] |
| --- | --- | --- | --- |
| G37U G38C U49G U56G | < 1e-05 |  |  |
| A36G G51C C71G | < 1e-05 | < 1e-05 |  |
| G35C G40A U46G G66A | < 1e-05 | < 1e-05 |  |
| G38A G43U G51C | < 1e-05 | < 1e-05 |  |
| A39G A64C U69G C71U | < 1e-05 | < 1e-05 |  |
| G35U G51A G63A C67A | < 1e-05 | < 1e-05 |  |
| A33C A53G | 3.89e-05 ± 1.4e-05 | 7.39e-05 ± 1.3e-05 | 0.000235 ± 3.8e-05 |
| G35U U45G C61A | < 1e-05 | < 1e-05 |  |
| A42G U55G A64G C71G | 0.000116 ± 3.7e-05 | 5.98e-05 ± 2e-05 |  |
| A33G C34U G40A A42U C68A | < 1e-05 | < 1e-05 |  |
| G38A A48C | < 1e-05 | < 1e-05 | < 1e-05 |
| A33C U45C U47A A48G | < 1e-05 |  |  |
| A39U A42G U65G | 0.000684 ± 0.00016 |  |  |
| G35U U57A | < 1e-05 |  | < 1e-05 |
| C34A G38U U54A | < 1e-05 | < 1e-05 |  |
| G35U U47A | < 1e-05 | < 1e-05 |  |
| A33G G38U U49C C71U | < 1e-05 | < 1e-05 |  |
| A39C G51C U56C C70A | < 1e-05 |  |  |
| G38A G62U G66C | < 1e-05 |  |  |

| Variant | self-cleavage kobs at 640 uM GlcN6P (glucosamine-6-phosphate [1]) [s⁻¹] | self-cleavage kobs at 2500 uM GlcN6P (glucosamine-6-phosphate [2]) [s⁻¹] | self-cleavage kobs at 10000 uM GlcN6P (glucosamine-6-phosphate [3]) [s⁻¹] |
| --- | --- | --- | --- |
| G35U G41A A64G | < 1e-05 | < 1e-05 |  |
| G37C G62C G63C C67U | < 1e-05 |  |  |
| A33G U57A | < 1e-05 | < 1e-05 |  |
| G35A G40U G62U | < 1e-05 | < 1e-05 |  |
| G38A C61A G62C | < 1e-05 | < 1e-05 | < 1e-05 |
| G35A U46C G66A | < 1e-05 |  |  |
| G40U C50A C67G | < 1e-05 |  |  |
| G43C G51U C61G | < 1e-05 | < 1e-05 |  |
| G38U G41A U47C | < 1e-05 | < 1e-05 |  |
| G38C A48C | < 1e-05 | < 1e-05 | < 1e-05 |
| G37C U45G G63U | < 1e-05 | < 1e-05 |  |
| C34G A42C A52U C58U U65G | < 1e-05 | < 1e-05 |  |
| G35A A36C C61G A64G | < 1e-05 |  |  |
| A33U G41A G44A A64U | < 1e-05 | < 1e-05 | < 1e-05 |
| A36G G37C U46C | < 1e-05 | < 1e-05 |  |
| G43C C50A | < 1e-05 | < 1e-05 |  |
| A36U U55C G60U | < 1e-05 |  |  |
| G35A G37A U46A G51C G59U | < 1e-05 | < 1e-05 |  |
